Laboratory results from the supplement of paper PMC7125110.
± gives the standard error. For some of these results: Fewer inactive variants are shown than the library holds.

B1: glmS ribozyme (parent)
chain: AUAAAAGCGCCAGAACUACAGAAAUGUAGUUGACGAGGAGGAGGUUUAUCGAAUUUUCGGCGGAUGCCUCCAAA

Assays:
Details in all cases: with glucosamine-6-phosphate
glucosamine-6-phosphate [1] = variants of: B1; test: kcat; higher = faster cleavage; RNA array
Outline: (§1)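 Barcoded ribozyme variants, transcribed in situ by E. coli RNA polymerase on sequenced MiSeq chips, were followed via a hybridised Cy3 probe at 37 °C. Glucosamine-6-phosphate ranged from 40 μM to 10 mM in HEPES/KCl/Mg(OAc)2 buffer. kobs came from decay fits to per-tile medians, and kcat and KM from weighted Michaelis–Menten fits.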

glucosamine-6-phosphate [2] = variants of: B1; test: self-cleavage kobs at 40 uM GlcN6P; higher = faster cleavage; RNA array
Outline: as §1

glucosamine-6-phosphate [3] = variants of: B1; test: self-cleavage kobs at 160 uM GlcN6P; higher = faster cleavage; RNA array
Outline: as §1

glucosamine-6-phosphate [4] = variants of: B1; test: self-cleavage kobs at 640 uM GlcN6P; higher = faster cleavage; RNA array
Outline: as §1

glucosamine-6-phosphate [5] = variants of: B1; test: self-cleavage kobs at 2500 uM GlcN6P; higher = faster cleavage; RNA array
Outline: as §1

glucosamine-6-phosphate [6] = variants of: B1; test: KM; higher = weaker cofactor use; RNA array
Outline: as §1

glucosamine-6-phosphate [7] = variants of: B1; test: self-cleavage kobs at 10000 uM GlcN6P; higher = faster cleavage; RNA array
Outline: as §1

| Variant | kcat (glucosamine-6-phosphate [1]) | self-cleavage kobs at 40 uM GlcN6P (glucosamine-6-phosphate [2]) | self-cleavage kobs at 160 uM GlcN6P (glucosamine-6-phosphate [3]) | self-cleavage kobs at 640 uM GlcN6P (glucosamine-6-phosphate [4]) | self-cleavage kobs at 2500 uM GlcN6P (glucosamine-6-phosphate [5]) | KM (glucosamine-6-phosphate [6]) | self-cleavage kobs at 10000 uM GlcN6P (glucosamine-6-phosphate [7]) |
| --- | --- | --- | --- | --- | --- | --- | --- |
| G41C A52U | 1.27e-05 ± 7.6e-07 s⁻¹ | < 1e-05 s⁻¹ | < 1e-05 s⁻¹ | – | – | – | – |
| G41C A52G | 1.14e-05 ± 2.5e-06 s⁻¹ | – | – | – | – | – | – |
| G43U U49C | < 1e-05 s⁻¹ | < 1e-05 s⁻¹ | < 1e-05 s⁻¹ | < 1e-05 s⁻¹ | < 1e-05 s⁻¹ | – | – |
| G41U U65A | 0.000223 ± 4.3e-05 s⁻¹ | – | – | 8.03e-05 ± 8.5e-06 s⁻¹ | 0.000238 ± 3.1e-05 s⁻¹ | 1090 ± 470 µM | 0.000183 ± 2e-05 s⁻¹ |
| U46A U65C | 0.000937 ± 0.00023 s⁻¹ | – | 4.37e-05 ± 1.8e-05 s⁻¹ | 0.00029 ± 6.2e-05 s⁻¹ | 0.000426 ± 8.2e-05 s⁻¹ | 2440 ± 1100 µM | 0.000782 ± 0.00014 s⁻¹ |
| U46A U54G | 0.00254 ± 0.00049 s⁻¹ | 8.77e-05 ± 2e-05 s⁻¹ | 0.000213 ± 5.2e-05 s⁻¹ | 0.00113 ± 0.00014 s⁻¹ | 0.00191 ± 0.00028 s⁻¹ | 1180 ± 400 µM | 0.00205 ± 0.00028 s⁻¹ |
| U46A C50U C58A C71G | 1.07e-05 ± 3e-06 s⁻¹ | – | – | – | – | – | – |
| G43U U54G | 8.63e-05 ± 2.8e-05 s⁻¹ | – | – | – | 6.89e-05 ± 1.8e-05 s⁻¹ | – | 6.53e-05 ± 2.3e-05 s⁻¹ |
| G44U C67U | 0.00551 ± 0.0015 s⁻¹ | 0.000365 ± 4e-05 s⁻¹ | 0.000837 ± 0.00016 s⁻¹ | 0.00206 ± 0.00029 s⁻¹ | 0.00417 ± 0.00073 s⁻¹ | 727 ± 310 µM | 0.00691 ± 0.001 s⁻¹ |
| G44U C67A | 0.0253 ± 0.0035 s⁻¹ | 0.000868 ± 0.0001 s⁻¹ | 0.00267 ± 0.00064 s⁻¹ | 0.00977 ± 0.0013 s⁻¹ | 0.0244 ± 0.0065 s⁻¹ | 1130 ± 210 µM | 0.0209 ± 0.0036 s⁻¹ |
| U46A U54G C70G | 0.000171 ± 6e-05 s⁻¹ | – | 6.23e-05 ± 2e-05 s⁻¹ | 0.000291 ± 6.7e-05 s⁻¹ | 0.000305 ± 6.4e-05 s⁻¹ | – | 0.000127 ± 2.9e-05 s⁻¹ |
| A42G U65A | 0.00459 ± 0.0018 s⁻¹ | 0.000318 ± 9.9e-05 s⁻¹ | 0.000409 ± 8.8e-05 s⁻¹ | 0.00121 ± 0.00028 s⁻¹ | 0.00291 ± 0.00077 s⁻¹ | – | 0.00423 ± 0.0014 s⁻¹ |
| A42G G51A | < 1e-05 s⁻¹ | < 1e-05 s⁻¹ | – | – | – | – | < 1e-05 s⁻¹ |
| G44U U45A | 0.000658 ± 0.00016 s⁻¹ | – | – | 0.000175 ± 3.5e-05 s⁻¹ | 0.000478 ± 9.7e-05 s⁻¹ | 1820 ± 740 µM | 0.00046 ± 0.00014 s⁻¹ |
| U45A A53G | 0.0342 ± 0.011 s⁻¹ | 0.002 ± 0.00022 s⁻¹ | 0.00536 ± 0.0026 s⁻¹ | 0.0131 ± 0.0026 s⁻¹ | – | 692 ± 270 µM | 0.0473 ± 0.012 s⁻¹ |
| G43A U45A | 5.51e-05 ± 7.6e-07 s⁻¹ | – | – | – | 2.63e-05 ± 1.1e-05 s⁻¹ | 2720 ± 100 µM | 4.33e-05 ± 1.3e-05 s⁻¹ |

| Variant | kcat (glucosamine-6-phosphate [1]) | self-cleavage kobs at 40 uM GlcN6P (glucosamine-6-phosphate [2]) | self-cleavage kobs at 160 uM GlcN6P (glucosamine-6-phosphate [3]) | self-cleavage kobs at 640 uM GlcN6P (glucosamine-6-phosphate [4]) | self-cleavage kobs at 2500 uM GlcN6P (glucosamine-6-phosphate [5]) | KM (glucosamine-6-phosphate [6]) | self-cleavage kobs at 10000 uM GlcN6P (glucosamine-6-phosphate [7]) |
| --- | --- | --- | --- | --- | --- | --- | --- |
| G41C C71U | 0.000207 ± 2.1e-05 s⁻¹ | – | – | 3.67e-05 ± 8.3e-06 s⁻¹ | 0.000119 ± 1.8e-05 s⁻¹ | 2580 ± 590 µM | 0.00016 ± 1.7e-05 s⁻¹ |
| G41C U45G G66C | 4.62e-05 ± 1e-05 s⁻¹ | – | – | – | – | – | 2.84e-05 ± 1.2e-05 s⁻¹ |
| G41C U47G | 0.000713 ± 0.00028 s⁻¹ | – | – | – | 3.37e-05 ± 1.6e-05 s⁻¹ | – | 0.000117 ± 2.8e-05 s⁻¹ |
| U45C U49C G66U | < 1e-05 s⁻¹ | – | – | – | < 1e-05 s⁻¹ | – | < 1e-05 s⁻¹ |
| G41U A64G | 0.000821 ± 6e-05 s⁻¹ | – | 3.5e-05 ± 9.6e-06 s⁻¹ | 0.00015 ± 2.3e-05 s⁻¹ | 0.000414 ± 5.2e-05 s⁻¹ | 2970 ± 430 µM | 0.000621 ± 4.9e-05 s⁻¹ |
| G43A U56G | 4.8e-05 ± 2.6e-07 s⁻¹ | – | – | – | – | 3400 ± 58 µM | 3.58e-05 ± 9e-06 s⁻¹ |
| U45A A48C | 0.000559 ± 7.1e-05 s⁻¹ | – | – | 0.000131 ± 2.3e-05 s⁻¹ | 0.000382 ± 8.1e-05 s⁻¹ | 2130 ± 560 µM | 0.000445 ± 5.6e-05 s⁻¹ |
| G43A C67G | 0.00156 ± 0.00014 s⁻¹ | 2.87e-05 ± 6.8e-06 s⁻¹ | 0.000114 ± 1.3e-05 s⁻¹ | 0.000321 ± 5.4e-05 s⁻¹ | 0.000994 ± 0.00015 s⁻¹ | 2110 ± 290 µM | 0.00126 ± 0.00013 s⁻¹ |
| U45A U56C | 0.00585 ± 0.0022 s⁻¹ | 7.22e-05 ± 1e-05 s⁻¹ | 0.000234 ± 3.5e-05 s⁻¹ | 0.0014 ± 0.00014 s⁻¹ | 0.00259 ± 0.00069 s⁻¹ | 3070 ± 1400 µM | 0.00411 ± 0.00072 s⁻¹ |
| U45A U65C | 0.00412 ± 0.0005 s⁻¹ | 9.95e-05 ± 1.1e-05 s⁻¹ | 0.000318 ± 6.3e-05 s⁻¹ | 0.000994 ± 0.00014 s⁻¹ | 0.00204 ± 0.00054 s⁻¹ | 1770 ± 290 µM | 0.00374 ± 0.00047 s⁻¹ |
| G41U G66U | 5.98e-05 ± 1.9e-06 s⁻¹ | – | < 1e-05 s⁻¹ | 3.02e-05 ± 1.5e-05 s⁻¹ | 5.12e-05 ± 1.5e-05 s⁻¹ | 582 ± 89 µM | 5.53e-05 ± 1.3e-05 s⁻¹ |
| U45A C71G | 0.00102 ± 0.00046 s⁻¹ | 0.000108 ± 2e-05 s⁻¹ | 0.00023 ± 8.2e-05 s⁻¹ | 0.000442 ± 9.7e-05 s⁻¹ | 0.00123 ± 0.00059 s⁻¹ | – | 0.00177 ± 0.00039 s⁻¹ |
| G44A C67G | 0.000462 ± 7e-05 s⁻¹ | – | 2.41e-05 ± 1e-05 s⁻¹ | 0.000128 ± 1.5e-05 s⁻¹ | 0.000355 ± 3.8e-05 s⁻¹ | 1700 ± 580 µM | 0.000371 ± 3e-05 s⁻¹ |
| U45C A48U | 7.71e-05 ± 4.6e-06 s⁻¹ | – | – | – | 6.49e-05 ± 1.5e-05 s⁻¹ | 628 ± 170 µM | 6.96e-05 ± 1.9e-05 s⁻¹ |
| G41U A42G | 0.000998 ± 0.00021 s⁻¹ | 4.79e-05 ± 9.1e-06 s⁻¹ | 9.47e-05 ± 2e-05 s⁻¹ | 0.000285 ± 6.2e-05 s⁻¹ | 0.000816 ± 0.00012 s⁻¹ | 1240 ± 450 µM | 0.000843 ± 0.00012 s⁻¹ |
